This assay has as its target HIV-1 CA carrying the A92E substitution (HIV-1). As to the kind of experiment: cryo-EM structure.

Among the data in article PMC8064030 are stoichiometry N values, retold here.

As a reminder, the stoichiometry N is a count of units in the complex or per binding partner.

In turn, “HIV-1 CA carrying the A92E substitution (natural protein)” came in with a stoichiometry N of 6.
